Assay results from paper PMC10977726 (PLOS ONE, 2024).

Target: human IgG Fc (Biotin-SP-ChromPure Human IgG, Fc fragment) (human, biotin (Biotin-SP))
Assay: SPR
Conditions: both partners purified

**Q.** ENLYFQGECKGKGAKCSSISIHDAHCCTGSCRSGKC (designed binder) [His(6)-SUMO-TEV-Ig-CON-5 fusion protein] was tested. Which Kd did it give?
**A.** The Kd was 22.2 nM.
